In publication PMC8978259, “Structural and biochemical insights into lipid transport by VPS13 proteins” (The Journal of Cell Biology, 2022):

B1: PxP(Mcp1sc)-VABsc(1,869-2,545)-His6 (other, S. cerevisiae, UniProt Q12106 2-20, looked up)
chain: IKLHEVPPEPVDPASLPHDKPYQLVNDTELDFDVWIQDKTTEDNKNEVVLLKANTSLPWEFEDWRSIREKLDIDKSKNILGVCVSGQNYKTIMNIDATTEGENLHVLSPPRNNVHNRIVCEARCDENNVKIITFRSTLVIENTTSTEIELLVDSKDPNKPSLKYAIKPHQSKSVPVEYAYDSDIRIRPASEDIYDWSQQTLSWKSLLSNQMSIFCSSKEDSNQRFHFEIGAKYDEREPLAKIFPHMKIVVSASMTIENLLPADINFSIFDKREEKRTDFLKTGESMEVHHISLDSFLLMSVQPLQDEASASKPSIVNTPHKSPLNPEDSLSLTLSGGQNLLLKLDYKNIDGTRSKVIRIYSPYIIMNSTDRELYIQSSLLNIAQSKILLENEKRYTIPKMFSFDKEDDKSNRARIRFKESEWSSKLSFDAIGQSFDASVRIKNKEQESNLGINISEGKGKYLLSKVIEIAPRYIISNTLDIPIEVCETGSMDVQQIESNITKPLYRMRNIVDKQLVLKFLGGDSNWSQPFFIKNVGVTYLKVLKNSRHKLLKIEILLDKATIFIRIKDGGDRWPFSIRNFSDHDFIFYQRDPRKVSDPYKDDQSNESSSRSFKPIFYRIPSKSIMPYAWDFPTAKEKYLVLESGTRTREVRLAEIGELPPLRLDKRSKDKPAPIVGLHVVADDDMQALVIVNYKAN
notes: Mcp1p of S. cerevisiae, Pro-X-Pro motif, residues 2-20; also called PXP-VABsc; source: E. coli BL21 (DE3), purified (Ni-NTA, Superdex 200)
B2: PxP(Spo71sc)-VABsc(1,869-2,545)-His6 (other, S. cerevisiae, UniProt Q03868 380-400, looked up)
chain: SHLPFINILPPWPTELTEEERKPYQLVNDTELDFDVWIQDKTTEDNKNEVVLLKANTSLPWEFEDWRSIREKLDIDKSKNILGVCVSGQNYKTIMNIDATTEGENLHVLSPPRNNVHNRIVCEARCDENNVKIITFRSTLVIENTTSTEIELLVDSKDPNKPSLKYAIKPHQSKSVPVEYAYDSDIRIRPASEDIYDWSQQTLSWKSLLSNQMSIFCSSKEDSNQRFHFEIGAKYDEREPLAKIFPHMKIVVSASMTIENLLPADINFSIFDKREEKRTDFLKTGESMEVHHISLDSFLLMSVQPLQDEASASKPSIVNTPHKSPLNPEDSLSLTLSGGQNLLLKLDYKNIDGTRSKVIRIYSPYIIMNSTDRELYIQSSLLNIAQSKILLENEKRYTIPKMFSFDKEDDKSNRARIRFKESEWSSKLSFDAIGQSFDASVRIKNKEQESNLGINISEGKGKYLLSKVIEIAPRYIISNTLDIPIEVCETGSMDVQQIESNITKPLYRMRNIVDKQLVLKFLGGDSNWSQPFFIKNVGVTYLKVLKNSRHKLLKIEILLDKATIFIRIKDGGDRWPFSIRNFSDHDFIFYQRDPRKVSDPYKDDQSNESSSRSFKPIFYRIPSKSIMPYAWDFPTAKEKYLVLESGTRTREVRLAEIGELPPLRLDKRSKDKPAPIVGLHVVADDDMQALVIVNYKAN
notes: Spo71p of S. cerevisiae, Pro-X-Pro motif, residues 380-400; also called PXP-VABsc; source: E. coli BL21 (DE3), purified (Ni-NTA, Superdex 200)
B3: PxP(Ypt35sc)-VABsc(1,869-2,545)-His6 (other, S. cerevisiae, UniProt P38815 2-22, looked up)
chain: SDKISFLPPEPIQLLDEDSTEKPYQLVNDTELDFDVWIQDKTTEDNKNEVVLLKANTSLPWEFEDWRSIREKLDIDKSKNILGVCVSGQNYKTIMNIDATTEGENLHVLSPPRNNVHNRIVCEARCDENNVKIITFRSTLVIENTTSTEIELLVDSKDPNKPSLKYAIKPHQSKSVPVEYAYDSDIRIRPASEDIYDWSQQTLSWKSLLSNQMSIFCSSKEDSNQRFHFEIGAKYDEREPLAKIFPHMKIVVSASMTIENLLPADINFSIFDKREEKRTDFLKTGESMEVHHISLDSFLLMSVQPLQDEASASKPSIVNTPHKSPLNPEDSLSLTLSGGQNLLLKLDYKNIDGTRSKVIRIYSPYIIMNSTDRELYIQSSLLNIAQSKILLENEKRYTIPKMFSFDKEDDKSNRARIRFKESEWSSKLSFDAIGQSFDASVRIKNKEQESNLGINISEGKGKYLLSKVIEIAPRYIISNTLDIPIEVCETGSMDVQQIESNITKPLYRMRNIVDKQLVLKFLGGDSNWSQPFFIKNVGVTYLKVLKNSRHKLLKIEILLDKATIFIRIKDGGDRWPFSIRNFSDHDFIFYQRDPRKVSDPYKDDQSNESSSRSFKPIFYRIPSKSIMPYAWDFPTAKEKYLVLESGTRTREVRLAEIGELPPLRLDKRSKDKPAPIVGLHVVADDDMQALVIVNYKAN
notes: Ypt35p of S. cerevisiae, Pro-X-Pro motif, residues 2-22; also called PXP-VABsc; source: E. coli BL21 (DE3), purified (Ni-NTA, Superdex 200)

Key:
[1] = molecular target: PxP(Mcp1ct)-VABct(1,944-2,635)-His6 (C. thermophilum); assay: negative stain EM; class averages of purified constructs; monomer or dimer
[2] = molecular target: PxP(Mcp1ct)-VABct(1,944-2,635)-His6 (C. thermophilum); assay: SEC; Superdex 200 gel filtration in buffer A (20 mM Hepes pH 7.8, 500 mM NaCl, 1 mM TCEP, 10% glycerol); monomer or dimer read from the elution profile
[3] = molecular target: the molecule itself; assay: as above

| Molecule | stoichiometry N [1] | stoichiometry N [2] | stoichiometry N [3] |
| --- | --- | --- | --- |
| PxP(Mcp1ct)-VABct(1,944-2,635)-His6 | 2 | 2 |  |
| B1 |  |  | 2 |
| B2 |  |  | 2 |
| B3 |  |  | 2 |
